According to patent US20120282285:

B1: MBL-Associated Serine Protease-2 (MASP-2) (protein)
chain: TPLGPKWPEPVFGRLASPGFPGEYANDQERRWTLTAPPGYRLRLYFTHFDLELSHLCEYDFVKLSSGAKVLATLCGQESTDTERAPGKDTFYSLGSSLDITFRSDYSNEKPFTGFEAFYAAEDIDECQVAPGEAPTCDHHCHNHLGGFYCSCRAGYVLHRNKRTCSALCSGQVFTQRSGELSSPEYPRPYPKLSSCTYSISLEEGFSVILDFVESFDVETHPETLCPYDFLKIQTDREEHGPFCGKTLPHRIETKSNTVTITFVTDESGDHTGWKIHYTSTAQPCPYPMAPPNGHVSPVQAKYILKDSFSIFCETGYELLQGHLPLKSFTAVCQKDGSWDRPMPACSIVDCGPPDDLPSGRVEYITGPGVTTYKAVIQYSCEETFYTMKVNDGKYVCEADGFWTSSKGEKSLPVCEPVCGLSARTTGGRIYGGQKAKPGDFPWQVLILGGTTAAGALLYDNWVLTAAHAVYEQKHDASALDIRMGTLKRLSPHYTQAWSEAVFIHEGYTHDAGFDNDIALIKLNNKVVINSNITPICLPRKEAESFMRTDDIGTASGWGLTQRGFLARNLMYVDIPIVDHQKCTAAYEKPPYPRGSVTANMLCAGLESGGKDSCRGDSGGALVFLDSETERWFVGGIVSWGSMNCGEAGQYGVYTKVINYIPWIENIISDF
B2: MBL-Associated Serine Protease-1 (MASP-1) (protein)
chain: HTVELNNMFGQIQSPGYPDSYPSDSEVTWNITVPDGFRIKLYFMHFNLESSYLCEYDYVKVETEDQVLATFCGRETTDTEQTPGQEVVLSPGSFMSITFRSDFSNEERFTGFDAHYMAVDVDECKEREDEELSCDHYCHNYIGGYYCSCRFGYILHTDNRTCRVECSDNLFTQRTGVITSPDFPNPYPKSSECLYTIELEEGFMVNLQFEDIFDIEDHPEVPCPYDYIKIKVGPKVLGPFCGEKAPEPISTQSHSVLILFHSDNSGENRGWRLSYRAAGNECPELQPPVHGKIEPSQAKYFFKDQVLVSCDTGYKVLKDNVEMDTFQIECLKDGTWSNKIPTCKIVDCRAPGELEHGLITFSTRNNLTTYKSEIKYSCQEPYYKMLNNNTGIYTCSAQGVWMNKVLGRSLPTCLPVCGLPKFSRKLMARIFNGRPAQKGTTPWIAMLSHLNGQPFCGGSLLGSSWIVTAAHCLHQSLDPEDPTLRDSDLLSPSDFKIILGKHWRLRSDENEQHLGVKHTTLHPQYDPNTFENDVALVELLESPVLNAFVMPICLPEGPQQEGAMVIVSGWGKQFLQRFPETLMEIEIPIVDHSTCQKAYAPLKKKVTRDMICAGEKEGGKDACAGDSGGPMVTLNRERGQWYLVGTVSWGDDCGKKDRYGVYSYIHHNKDWIQRVTGVRN

Columns and labels:
[1] = target: mannose-binding lectin (MBL), P11226
mannose-binding lectin (MBL), P11226, sequence (P11226 21-248): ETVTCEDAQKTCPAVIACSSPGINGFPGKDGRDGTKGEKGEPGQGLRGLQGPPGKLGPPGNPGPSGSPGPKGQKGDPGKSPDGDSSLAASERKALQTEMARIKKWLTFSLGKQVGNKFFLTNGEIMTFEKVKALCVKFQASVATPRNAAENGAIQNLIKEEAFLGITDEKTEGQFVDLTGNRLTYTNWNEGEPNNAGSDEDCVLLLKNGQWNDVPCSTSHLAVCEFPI

Ficolin-3, O75636, sequence (O75636 24-299): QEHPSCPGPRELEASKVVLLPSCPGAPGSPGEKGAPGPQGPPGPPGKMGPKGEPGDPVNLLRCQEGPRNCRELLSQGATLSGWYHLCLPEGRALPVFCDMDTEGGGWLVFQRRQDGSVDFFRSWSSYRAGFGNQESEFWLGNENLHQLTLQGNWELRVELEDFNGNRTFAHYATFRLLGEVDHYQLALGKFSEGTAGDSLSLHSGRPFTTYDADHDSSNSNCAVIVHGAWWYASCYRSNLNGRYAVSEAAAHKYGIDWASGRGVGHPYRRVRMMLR

Protein	C4 deposition (OD490-650nm), AcBSA/rFicolin-3 with Ficolin-3 deficient serum (Ficolin-3, O75636)	C4 deposition (OD490-650nm), mannan/rMBL with MBL deficient serum [1]	complement activation (C3 and C4) [1]
B1	Application of rMASP-2 resulted in a strong positive dose dependent enhancement of the C4 deposition via both the Ficolin-3 and MBL activation pathways (FIGS. 25B and 25E)	Application of rMASP-2 resulted in a strong positive dose dependent enhancement of the C4 deposition via both the Ficolin-3 and MBL activation pathways (FIGS. 25B and 25E)	MASP-2 were able to strongly activate both the C3 and C4 complement proteins
B2			MASP-1 were able to activate both the C3 and C4 complement proteins
